Measured values reported in article PMC6380343, “Interactions and activities of factors involved in the late stages of human 18S rRNA maturation” (RNA Biology, 2019).

T1: His-tagged NOB1 (human, UniProt Q9ULX3 1-412)
T1 construct: also called His-NOB1; source: E. coli BL21 Codon Plus, purified (Ni-NTA, desalted); not shown: His6, N-terminal, kept
T1 sequence (looked up): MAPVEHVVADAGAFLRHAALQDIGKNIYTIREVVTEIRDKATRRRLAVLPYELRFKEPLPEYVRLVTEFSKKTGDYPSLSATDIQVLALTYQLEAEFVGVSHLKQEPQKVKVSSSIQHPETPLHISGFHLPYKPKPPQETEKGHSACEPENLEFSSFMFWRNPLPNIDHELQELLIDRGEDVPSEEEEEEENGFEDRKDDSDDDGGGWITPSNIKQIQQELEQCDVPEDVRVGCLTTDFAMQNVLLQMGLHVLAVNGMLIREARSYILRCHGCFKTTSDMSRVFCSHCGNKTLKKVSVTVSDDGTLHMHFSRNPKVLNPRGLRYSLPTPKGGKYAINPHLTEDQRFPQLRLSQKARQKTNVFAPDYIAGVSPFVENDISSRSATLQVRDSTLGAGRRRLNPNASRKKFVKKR

B1: His-tagged DIM1 (natural protein, human, UniProt Q9UNQ2 1-313, looked up)
chain: MPKVKSGAIGRRRGRQEQRRELKSAGGLMFNTGIGQHILKNPLIINSIIDKAALRPTDVVLEVGPGTGNMTVKLLEKAKKVVACELDPRLVAELHKRVQGTPVASKLQVLVGDVLKTDLPFFDTCVANLPYQISSPFVFKLLLHRPFFRCAILMFQREFALRLVAKPGDKLYCRLSINTQLLARVDHLMKVGKNNFRPPPKVESSVVRIEPKNPPPPINFQEWDGLVRITFVRKNKTLSAAFKSSAVQQLLEKNYRIHCSVHNIIIPEDFSIADKIQQILTSTGFSDKRARSMDIDDFIRLLHGFNAEGIHFS
notes: also called His-DIM1; source: E. coli BL21 Codon Plus, purified (Ni-NTA, desalted); not shown: His6, N-terminal, kept
B2: GST-tagged PNO1 (natural protein)
chain: not shown
notes: also called GST-PNO1; source: E. coli BL21 Codon Plus, purified (glutathione sepharose, desalted); not shown: GST, N-terminal, kept

Assays:
GST-tagged RIO2 = target: T2, GST-tagged RIO2 (human, UniProt Q9BVS4-1 1-552); experiment: pull-down; 50 ng GST-tagged bait with equal amounts of His-tagged or untagged prey; 50 mM Tris-HCl pH 8.0, 10% glycerol, 300 mM NaCl, 5 mM MgCl2, 0.1% Tween20; 1 h at 4°C; glutathione sepharose; western blotting; conditions: both partners purified
T2 construct: also called GST-RIO2; source: E. coli BL21 Codon Plus, purified (glutathione sepharose, desalted); not shown: GST, N-terminal, kept
T2 sequence (Q9BVS4 whole entry): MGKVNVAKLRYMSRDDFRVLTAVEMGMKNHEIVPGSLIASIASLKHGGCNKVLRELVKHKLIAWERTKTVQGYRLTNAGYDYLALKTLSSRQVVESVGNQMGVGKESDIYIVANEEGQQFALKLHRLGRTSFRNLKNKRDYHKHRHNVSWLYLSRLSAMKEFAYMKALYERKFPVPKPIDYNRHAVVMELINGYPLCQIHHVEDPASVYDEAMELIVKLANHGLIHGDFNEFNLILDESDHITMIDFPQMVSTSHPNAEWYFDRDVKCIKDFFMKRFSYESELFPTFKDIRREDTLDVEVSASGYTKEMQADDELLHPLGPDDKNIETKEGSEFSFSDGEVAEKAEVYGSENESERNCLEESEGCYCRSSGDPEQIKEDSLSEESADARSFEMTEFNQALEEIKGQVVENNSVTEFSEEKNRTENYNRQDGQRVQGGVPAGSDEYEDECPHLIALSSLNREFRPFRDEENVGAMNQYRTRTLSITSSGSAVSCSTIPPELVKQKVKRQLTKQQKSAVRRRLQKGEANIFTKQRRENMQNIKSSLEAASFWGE

His-tagged NOB1 = target: T1, His-tagged NOB1; experiment: as above; conditions: both partners purified

binding result (GST-tagged RIO2) | binding result (His-tagged NOB1) | Binder
binds | – | B1
– | binds | B2
